Laboratory results published in article PMC9445081, “Structural basis for recognition of N-formyl peptides as pathogen-associated molecular patterns” (Nature Communications, 2022).
Residue numbers refer to the chain shown, from its start. Where no end group is shown, it is not given here. The star is where a group is joined. For = O=C*

Legend:
FPR1 [1] = details: non-formyl MLF versus fMLF; cited from earlier work
FPR1 [2] = details: cited from earlier work
[3] = target: T1, Gαi (α subunit of the Gi1 heterotrimer) (human, UniProt P63096 1-354); test: cryo-EM structure; details: both partners purified
T1 construct: Gαi of the Gi1 heterotrimer, human cDNA; The same chain as the first chain of m4; source: Trichoplusia ni Hi5 insect cells (baculovirus), purified as part of the Gi1 heterotrimer (Ni-NTA)

FPR1 F102A = target: T2, FPR1 F102A (human, UniProt P21462 1-350, F102A); test: cell-based or functional assay
T2 sequence (looked up): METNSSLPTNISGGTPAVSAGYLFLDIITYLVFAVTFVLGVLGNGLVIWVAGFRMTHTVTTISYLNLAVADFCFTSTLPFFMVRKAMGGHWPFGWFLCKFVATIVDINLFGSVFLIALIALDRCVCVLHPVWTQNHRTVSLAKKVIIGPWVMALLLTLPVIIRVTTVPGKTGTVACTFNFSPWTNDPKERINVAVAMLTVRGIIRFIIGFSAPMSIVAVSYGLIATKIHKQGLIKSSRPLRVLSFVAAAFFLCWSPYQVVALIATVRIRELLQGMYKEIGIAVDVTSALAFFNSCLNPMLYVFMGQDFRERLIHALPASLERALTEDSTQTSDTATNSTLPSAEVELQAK

FPR1 L109A = target: T3, FPR1 L109A (human, UniProt P21462 1-350, L109A); test: cell-based or functional assay
T3 sequence (looked up): T2 sequence (looked up) with A102F, L109A

FPR1 F110A = target: T4, FPR1 F110A (human, UniProt P21462 1-350, F110A); test: cell-based or functional assay
T4 sequence (looked up): T2 sequence (looked up) with A102F, F110A

FPR1 T265A = target: T5, FPR1 T265A (human, UniProt P21462 1-350, T265A); test: cell-based or functional assay
T5 sequence (looked up): T2 sequence (looked up) with A102F, T265A

FPR1 V283A = target: T6, FPR1 V283A (human, UniProt P21462 1-350, V283A); test: cell-based or functional assay
T6 sequence (looked up): T2 sequence (looked up) with A102F, V283A

FPR1 F291A = target: T7, FPR1 F291A (human, UniProt P21462 1-350, F291A); test: cell-based or functional assay
T7 sequence (looked up): T2 sequence (looked up) with A102F, F291A

[4] = target: T8, WT FPR1 expressed in HeLa cells (human, UniProt P21462 1-350); test: cell-based or functional assay
T8 sequence (looked up): T2 sequence (looked up) with A102F

FPR1 F81A = target: T9, FPR1 F81A (human, UniProt P21462 1-350, F81A); test: cell-based or functional assay
T9 sequence (looked up): T2 sequence (looked up) with F81A, A102F

T1 sequence (P63096 whole entry, one chain of several): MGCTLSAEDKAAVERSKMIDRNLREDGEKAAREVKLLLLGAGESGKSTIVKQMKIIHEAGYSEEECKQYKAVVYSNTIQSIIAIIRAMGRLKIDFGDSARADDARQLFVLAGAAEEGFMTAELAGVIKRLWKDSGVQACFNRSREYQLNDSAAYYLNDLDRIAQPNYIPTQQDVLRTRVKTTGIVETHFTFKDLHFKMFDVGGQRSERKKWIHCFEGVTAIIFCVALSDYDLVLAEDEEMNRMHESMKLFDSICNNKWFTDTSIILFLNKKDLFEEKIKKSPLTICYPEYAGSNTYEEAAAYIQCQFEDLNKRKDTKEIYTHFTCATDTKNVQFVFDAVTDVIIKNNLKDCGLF

In the case of Met-Leu-Phe [MLF], the “orders of magnitude less potent in FPR1 binding” value (FPR1 [1]) is given as 3 orders of magnitude.

For tBoc-MLF, the “pharmacological property at FPR1” value (FPR1 [2]) is listed as “antagonist”.

B1: formyl peptide receptor 1 (FPR1), N-terminal FLAG tag and C-terminal 6 x His tag (receptor, human)
chain: T2 sequence (looked up) with A102F
notes: formyl peptide receptor 1, Homo sapiens, cDNA Gene ID 2357; Solubilised in DDM/CHS and exchanged to LMNG (later LMNG/GDN/CHS); also called human FPR1; source: Sf9 insect cells (baculovirus), purified (anti-FLAG M1 resin, SEC) in detergent; not shown: FLAG, N-terminal, kept
B1: binds [3].

In the case of For-Met-Leu-Phe [fMet-Leu-Phe (fMLF)], the “pEC50 of inhibition of forskolin-elevated cAMP, transfected HeLa cells” value (“pEC50 of inhibition … transfected HeLa cells” for short) (FPR1 F102A) is reported as 8.5, the “pEC50 of inhibition … transfected HeLa cells” value (FPR1 L109A) is reported as 8.1 and the “pEC50 of inhibition … transfected HeLa cells” value (FPR1 F110A) is reported as 8.6. The “pEC50 of inhibition … transfected HeLa cells” value (FPR1 T265A) was 7.8, the “pEC50 of inhibition … transfected HeLa cells” value (FPR1 V283A) was 8.8 and the “pEC50 of inhibition … transfected HeLa cells” value (FPR1 F291A) was 8.4. The “pEC50 of inhibition … transfected HeLa cells” value [4] was 9.1 and the “pEC50 of inhibition … transfected HeLa cells” value (FPR1 F81A) was 8.1.
